Reference: the supplement of paper PMC10567573
± gives the standard deviation.

Experiment: protein stability index of a GFP-peptide fusion (GPS, HEK-293T) (PSI 1-6); higher = more stable
[1] = treatment: DMSO, c terminus: a fixed tail appended
[2] = treatment: MLN4924 1 uM, 8 h, c terminus: a fixed tail appended
[3] = treatment: DMSO, c terminus: native
[4] = treatment: MLN4924 1 uM, 8 h, c terminus: native
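Note: 24-mer peptide tiles fused after GFP, lentivirally expressed, FACS-sorted into six equal bins by GFP/DsRed ratio, decoded by Illumina sequencing, PSI is the read-weighted mean bin number.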

Sequence	protein stability index [1]	protein stability index [2]	protein stability index [3]	protein stability index [4]
FQEDVPMSTEEQYRIRQVNIYYYL [EFHC1]	2.52 ± 0.78	2.22 ± 0.15	–	–
FQKSLVLISKLPYIHFFHTVLKQI [DENND6A]	2.67 ± 0.72	2.42 ± 0.63	–	–
FRKEIKSKSADNQEYFERHRWPPV [RHOBTB1]	3.45 ± 0.44	3.26 ± 0.16	–	–
FSDVTFILDDGTISAHKPLLISSC [RHOBTB2]	2.47 ± 0.15	2.25 ± 0.29	–	–
FSKVKTSLGLDHCHSFISGTAPLN [ACSBG2]	2.52 ± 0.3	2.44 ± 0.29	–	–
FSPNSPQFNVSGPGLLEEDNQWMT [NECAB1]	3.23 ± 0.34	3.58 ± 0.3	–	–
FSRAPVSALPLAPNHLGGGAVVLG [STX5]	2.81 ± 0.11	2.98 ± 0.17	–	–
FSTILHLLLGSPHPAATALHAELC [LPCAT4]	3.14 ± 0.47	2.73 ± 0.53	–	–
FTDCSFFVRGQEFKAHKSVLAARS [SPOPL]	2.95 ± 0.69	2.61 ± 0.57	–	–
FVGAIFNGLTLLILGVIGLFTIPL [RTN2]	2.02 ± 0.11	2.27 ± 0.42	–	–
FVVMGVIGGLLGATFNCLNKRLAK [CLCN6]	2.55 ± 0.39	2.7 ± 0.59	–	–
FWEEHKASLGREESRAPSPLLHKD [CBY2]	4.61 ± 0.17	4.71 ± 0.21	–	–
FYAITTLHNLLLHQEGAKMAVRLA [CTNNB1]	3.02 ± 0.17	2.79 ± 0.15	–	–
GADREFIEARRRALKRFVNLVARH [SNX8]	2.45 ± 0.15	2.64 ± 0.25	–	–
GAQMEKEWARALETRDWGGAQFEG [ZSWIM9]	4.11 ± 0.26	4.22 ± 0.1	–	–
GDFAWERVRGLGLPKLYLPTGPRR [CDKN1A]	2.98 ± 0.32	3.32 ± 0.4	–	–
GEDQAFGDWLLTANGSEIHKHVHF [SLC22A15]	3.03 ± 0.26	3.09 ± 0.26	–	–
GEEPVPHQQVEEALSFTLLGSAPL [NEK8]	4.33 ± 0.22	4.32 ± 0.29	–	–
GEEQAQLLHVSSPNLASDSDLSRR [KCNA1]	5.36 ± 0.16	5.33 ± 0.11	–	–
GEEQLKTHKKCKEEVVSTLDAVQV [FCHO1]	4.13 ± 0.38	4.12 ± 0.19	–	–
GEKMVAAKVKGEKLDKKLKKMEQN [ATF4]	5 ± 0.27	4.76 ± 0.18	–	–
GELLNMIVAVIDSAQLQELVCHVM [INTS3]	2.92 ± 0.59	2.6 ± 0.72	–	–
GELRRRPGDMKTKMELLILETQAQ [CPOX]	3.34 ± 0.18	3.43 ± 0.26	–	–

Sequence	protein stability index [1]	protein stability index [2]	protein stability index [3]	protein stability index [4]
GETRICKIYDSPCLPEAEAMFAIN [RAD51]	3.53 ± 0.4	3.65 ± 0.35	–	–
GFFLLQLANHTGYIKVDWQRVEKD [FUNDC2]	2.34 ± 0.69	2.11 ± 0.37	–	–
GFGLAHTPLEPDAKDLPCDSKPES [TBX5]	5.38 ± 0.51	5.47 ± 0.43	–	–
GFIRFDKRIEAEEAIKGLNGQKPL [ELAVL3]	3.66 ± 0.42	4.08 ± 0.49	–	–
GGAAGAGWCIFVYNLSPEADESVL [ELAVL3]	3.22 ± 1.1	2.52 ± 0.91	–	–
GGIPALVKMLGSPVDSVLFYAITT [CTNNB1]	3.19 ± 0.79	3.07 ± 0.99	–	–
GGSGGGGGGDEDGSLGSRAEPAPR [SMAD6]	5.38 ± 0.21	5.41 ± 0.13	–	–
GGSGGGSHHHHQSRGACTSHDPQS [KCNA4]	5.08 ± 0.24	5.12 ± 0.33	–	–
GISTGHWSGEVKDKNVQVVELPIV [FUT8]	3.8 ± 0.31	3.9 ± 0.37	–	–
GKDCFLELAPDFVGDILWEHLEIL [ETS1]	2.42 ± 0.54	2.05 ± 0.39	–	–
GKSFCHSTHLTVHRRIHTGEKPYE [ZNF8]	3 ± 0.16	3.35 ± 0.3	–	–
GKSFNRHCNLIRHQKIHTVAELV [ZSCAN9]	–	–	2.08 ± 0.28	2.05 ± 0.33
GLKADTLKERYQKIGDTKRNTPIE [CSNK1G1]	4.36 ± 0.26	4.53 ± 0.12	–	–
GLLLESLVPFIVNDNITNNFFRFL [DYNC2LI1]	2.9 ± 0.44	3.17 ± 0.62	–	–
GNNLHNASIPEHLAYGSVITVKNL [POMT2]	3.05 ± 0.37	3.02 ± 0.28	–	–
GNQDYKYRVSDVTKAGHSLELIEP [VDR]	4.24 ± 0.22	4.3 ± 0.26	–	–
GNVKIDSQKLNFREHAKARVDHGA [MAP2]	4.22 ± 0.14	4.23 ± 0.52	–	–
GQSDFRPKNGRHAWIWHDCHRHYH [LOXL2]	2.54 ± 0.29	3.03 ± 0.45	–	–
GQVLHFENVKDVPFGFQTVTSDVN [SERPINB5]	3.85 ± 0.36	3.84 ± 0.42	–	–
GRKQPGVHEEPVLKKWPKLKSKK [C22orf31]	–	–	5.16 ± 0.26	5.08 ± 0.24
GRLLLTLPLLRQTAGKVLAHFYGV [ESRRA]	2.78 ± 0.54	3.05 ± 0.88	–	–
GRPKELQPKKLHLCPLCGKNFSNN [ZNF263]	2.88 ± 0.46	3.58 ± 0.52	–	–
GRTGTLIACYVMKHYRFTHAEIIA [CDC14A]	2.74 ± 0.89	3.11 ± 0.45	–	–

Sequence	protein stability index [1]	protein stability index [2]	protein stability index [3]	protein stability index [4]
GSGGGYGGGMRVCGFGGGAGSVFG [KRT15]	2.18 ± 0.29	2.34 ± 0.22	–	–
GSKCSPEDLATAYNNRGQIKYFRV [TTC32]	2.16 ± 0.21	2.13 ± 0.37	–	–
GSKEGNHHSTQPKRNKRNPIFQDS [FAM104B]	4.57 ± 0.21	4.55 ± 0.3	–	–
GSMEALNLKQLRKRGSIPTSLTAL [PPFIA4]	3.11 ± 0.2	3.11 ± 0.22	–	–
GSSGSYFVKDPQGRIIAVFKPKNE [PI4K2A]	3.34 ± 0.16	3.66 ± 0.12	–	–
GTQFTFDQDPSVLYFSIHRYEQGR [HDAC6]	2.31 ± 0.51	2.52 ± 0.34	–	–
GVTAIIFCVALSDYDLVLAEDEEM [GNAI1]	3.86 ± 0.17	2.75 ± 0.9	–	–
GVVMKVRIPTCHDKPGTTQIVQLT [DENND6A]	2.02 ± 0.19	2.15 ± 0.4	–	–
GWILIDRCGKHFGTILNYLRDGAV [KCTD10]	3.08 ± 0.41	2.38 ± 0.52	–	–
GYQRKCYFISTVKRSWTSAQNACS [CD69]	2.46 ± 0.66	1.85 ± 0.59	–	–
HAFQKELTCVICLNYLVDPVTICC [TRIM43]	3.04 ± 0.33	2.95 ± 0.4	–	–
HCKEKRKTSLLDQLTNTSGTVIGV [NETO1]	3.37 ± 0.24	3.34 ± 0.31	–	–
HCMLVSNRVSWWGSTLAMLQRLKE [ZBED1]	3.29 ± 0.18	3.46 ± 0.37	–	–
HEEVVEKVKKSGSRVMFLLVDKET [PDZK1]	3.97 ± 0.17	4.25 ± 0.23	–	–
HFMVLSKSGPGDGFFSSAFQARLS [POMT2]	2.19 ± 0.11	2.06 ± 0.18	–	–
HFPYDLHLRSQSLTMQDELNAVFH [NEUROD6]	2.81 ± 0.19	2.92 ± 0.27	–	–
HGAHINLQSLKFQGGHGPAATLLR [RIPK4]	2.65 ± 0.36	3 ± 0.047	–	–
HGQAGQRQDPRPHGPQLPTGIEGN [ZBED2]	4.91 ± 0.13	5.11 ± 0.15	–	–
HGQEGSILVTKVEEPSKYGVVVCE [GMPPB]	3.9 ± 0.13	3.94 ± 0.25	–	–
HILASAPTDRNLCHFQALGCRTTH [PYCR3]	2.19 ± 0.45	2.23 ± 0.15	–	–
HLVQHQHPNSRKSSAGGAKAGQPE [ZNF8]	4.8 ± 0.18	4.79 ± 0.16	–	–
HMEGLIVRERILGADNIDVSHPII [FEM1B]	3.25 ± 0.23	2.95 ± 0.28	–	–
HMTRHLEESEKAMQERVQRLEAAR [LRRC45]	5.15 ± 0.06	5.06 ± 0.19	–	–

Sequence	protein stability index [1]	protein stability index [2]	protein stability index [3]	protein stability index [4]
HPWKWSNGKEFNNWFNVTGSDKCV [CD69]	2.58 ± 0.53	2.46 ± 0.17	–	–
HQRIHTGEKPYECVQCGKSYSQSS [ZNF24]	3.79 ± 0.4	3.92 ± 0.28	–	–
HSGDLGQLDGLGFLYVTGHIKEIL [ACSBG2]	2.09 ± 0.17	2.19 ± 0.32	–	–
HSKLLVSGFWGVARHFNYVGDLMG [DHCR7]	2.34 ± 0.53	2.33 ± 0.44	–	–
HTGERPFQCNQCGASFTQKGNLLR [IKZF1]	2.21 ± 0.29	2.79 ± 0.52	–	–
HTKPSQAPAVEVAPAGASYNPSFE [NOP53]	4.86 ± 0.36	4.95 ± 0.19	–	–
HVLLPVALEFQPQLVLVAAGFDAL [HDAC6]	3.25 ± 0.43	2.78 ± 0.43	–	–
IAQAEEQARKRQEEREKEAAEQAE [SMARCE1]	5.24 ± 0.12	5.892 ± 0.034	–	–
IAQDTCTTTDHSSNPGPVPGSSSG [SPAG8]	5.23 ± 0.44	5.26 ± 0.23	–	–
IASSDSEVEIVGVQEHARCVHPRG [C18orf25]	4.49 ± 0.37	4.6 ± 0.1	–	–
ICAIEYLHSKEIVYRDLKPENILL [PRKX]	2.61 ± 0.39	2.96 ± 0.94	–	–
IDASQLPHRVLETRGHAISILFGF [SMIM2]	2.68 ± 0.54	2.51 ± 0.54	–	–
IDGDGDDMERFMEEMRELRRKIRE [BEX5]	3.26 ± 0.24	3.71 ± 0.34	–	–
IEEACYAQTIPTKDRLEGLLAFKE [AUH]	3.73 ± 0.46	3.55 ± 0.69	–	–
IERQWGNLLGEGQHKCDECGKSFT [ZSCAN9]	3.79 ± 0.34	3.55 ± 0.22	–	–
IETYGPHVPELEMLGRLGYLNHVR [MNAT1]	2.4 ± 0.1	2.62 ± 0.19	–	–
IGLDNGTISEFILSEDYNKMTPVK [WDFY2]	2.98 ± 0.47	3.16 ± 0.54	–	–
IHCENCKTTLGWKYEQAFESSQKY [YPEL3]	2.36 ± 0.38	2.62 ± 0.62	–	–
IHSPAHPEIEKADDHLQQPLQNQK [ZNF649]	5.39 ± 0.16	5.35 ± 0.37	–	–
IIYMAILLTHRCLRDEHRCASKYG [DHCR7]	2.83 ± 0.75	2.75 ± 0.81	–	–
